Assay results from US20010039258A1, “Active agent transport systems” (Emisphere Technologies, Inc., priority 1990, published 2001).
pKd: −log10 of the molar value.

Assays:
[1] = DSC of insulin, effect of ionic strength; type: physicochemical; conditions: pH 7.5
Protocol: (§1) Scanning calorimetry was performed using 5 mg 0.83 mM porcine insulin (MW 6,000) per mL in 50 mM phosphate buffer, pH 7.5. All thermograms were performed on a Microcal MC-2 scanning calorimeter equipped with the DA2 data acquisition system operated in the upscale mode at 1° C./min (up to 90° C.), and data points were collected at 20 second intervals. All scans were initiated at least 20 degrees below the observed transitions for the active agent. All thermograms were corrected for baseline subtraction and normalized for the concentration of macromolecule. According to the methods of the Johns Hopkins Biocalorimetry Center, See, for example, Ramsay et al. Biochemistry (1990) 29:8677-8693; Schon et al. Biochemistry (1989) 28:5019-5024 (1990) 29: 781-788.
A sample containing 6 mg/mL insulin (0.83 mM in 50 mM phosphate buffer, pH 7.5, containing 0.25, 0.5, or 1.0M NaCl) was used. Thermograms were performed according to the procedure in Example 9 and were corrected by subtraction of a 0.5M NaCl-phosphate buffer blank as described above.
The effect of increasing ionic strength on structure was assessed in DSC experiments where individual solutions were prepared so as to contain NaCl at concentrations ranging from 0.25-3M.

[2] = DSC of insulin with increasing guanidine hydrochloride; type: physicochemical
Protocol: DSC was performed with […] insulin (0.83 mM assuming a molecular weight of 6,000) in 50 mM phosphate buffer, pH 7.5. Each subsequent thermogram was corrected by background subtraction of a 0.6M guanidine-phosphate buffer solution.
Insulin was freshly prepared as a concentrated stock solution in 50 mM phosphate buffer, pH 7.5, and an appropriate aliquot was diluted in buffer, filtered though a 2 micron PTFE filter, and degassed for at least 20 minutes. The reference cell contained degassed buffer.
as §1, with “781-788. […]” for “781-788.”

[3] = target: salmon calcitonin (salmon) (UniProt P01263); experiment: ITC, 30 C, pH 4.5 (30 mM sodium acetate-30 mM NaCl); perturbant in syringe, sCt in cell
Chain of salmon calcitonin (salmon) (P01263 83-114 limits assumed): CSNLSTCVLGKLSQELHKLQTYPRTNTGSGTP

[4] = target: salmon calcitonin (salmon) (UniProt P01263); experiment: ITC, 30 C, pH 6.6 (text: pH 6.5); perturbant in syringe, sCt in cell
[5] = target: salmon calcitonin (salmon) (UniProt P01263); experiment: ITC, 30 C, pH 4.5; perturbant in syringe, sCt in cell
[6] = target: salmon calcitonin (salmon) (UniProt P01263); experiment: ITC, 30 C, pH 6.6 (text: pH 6.5, 30 mM Hepes-30 mM NaCl); perturbant in syringe, sCt in cell
[7] = Solubility of perturbant under the DSC buffer conditions; type: physicochemical; conditions: room temperature; buffer conditions of the DSC (20 mM NaPhosphate pH 7.2)
Protocol: (§2) Perturbant binding DSC was conducted using 20 mM NaPhosphate buffer at pH 7.2. Dry perturbant was weighed out to make perturbant stock solutions. α-interferon stock was diluted in the buffer. α-interferon solution was not dialyzed prior to experiments for the purpose of having the same active concentration for the whole set.
DSC experiments were carried out according to the procedure of Example 19, with 0.5 mg/ml α-interferon mixed with (1) benzoyl para-amino phenylbutyric acid, (2) the perturbant of Example 22, or (3) the perturbant of Example 19.
Benzoyl para-amino phenylbutyric acid was poorly soluble under the buffer conditions. Maximum concentration at which the solution was still transparent at room temperature was ˜8 mg/mL. Therefore, the concentrations of the perturbant used were 2, 4, and 6 mg/mL. Results are illustrate in FIGS. 17 and 18. The dashed line in FIG. 17 represents the linear least squares, and the regression equation is at the top of FIG. 17.

α-interferon [8] = target: T1, α-interferon (Homo sapiens, UniProt P01563); experiment: Isothermal titration calorimetry of perturbant complexing with α-interferon; type: binding; conditions: pH 7.2, 25° C.
T1 construct: purchased Schering Plough Corp
T1 sequence (P01563 24-188): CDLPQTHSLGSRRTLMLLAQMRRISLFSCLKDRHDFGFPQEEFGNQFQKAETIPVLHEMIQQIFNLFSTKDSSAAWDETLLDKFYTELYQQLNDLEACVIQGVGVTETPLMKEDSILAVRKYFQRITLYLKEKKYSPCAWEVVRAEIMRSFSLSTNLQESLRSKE
Protocol: Isothermal titration calorimetry of perturbant complexing with α-interferon was performed at 25° C. at two different pH's. The buffers used were 20 mM NaPhosphate for pH 7.2 and 20 mM NaAc for pH 3.0. α-interferon solution was dialyzed before the experiment to reach the appropriate pH. Dry perturbants were weighed and diluted in dialysate.
ITC was conducted on a MicroCal OMEGA titration calorimeter (MicroCal Inc.—Northampton, Mass.). Data points were collected every 2 seconds, without subsequent filtering. α-interferon solution placed in 1.3625 mL cell was titrated using a 250 μL syringe filled with concentrated perturbant solution. A certain amount of titrant was injected every 3-5 minutes for up to 55 injections.
A reference experiment to correct for the heat of mixing of two solutions, was performed identically except that the reaction cell was filled with buffer without active agent.
Analysis of the data was performed using the software developed at the Johns Hopkins University Biocalorimetry Center.
The titration at pH 7.2 included 53 injections of 2 μL of the perturbant of Example 30 (50 mg/mL=191.6 mM (MW 261)) and α-interferon (1.3 mg/mL=0.067 mM (MW 19400)).
The titration at pH 7.2 included two runs of […] each of 5 μL of perturbant (50 mg/mL=181 mM (FW 277)) and α-interferon (2.31 mg/mL=0.119 mM, (MW 19400)).
ITC was performed according to the method of Example 24 with 40 injections of 5 μL of the perturbant benzoyl para-amino phenylbutyric acid (7.5 mg/mL=24.59 mM, (FW 305)) and α-interferon (2.5 mg/mL=0.129 mM, (MW 19400)).

α-interferon [9] = target: T1, α-interferon; experiment: as above; type: binding; conditions: pH 7; read-out: apparent dissociation constant
[10] = DSC of α-interferon, pH dependence; type: physicochemical
Protocol: as §1
α-interferon stock (9.1 mg/mL) was diluted with buffer to a concentration of 0.6 mg/mL. The sample was dialyzed overnight in buffer (volume ratio of α-interferon to buffer was 1:4000). Since there was no extinction coefficient provided, concentration of the sample used was determined by comparison of absorption spectra of the sample before and after dialysis. For each particular pH, the absorbance of the nondialyzed α-interferon of known concentration was measured at 280 nm. Then after dialysis, absorbance was read again to account for the protein loss, dilution, etc. Buffer conditions and α-interferon concentrations were:
pH 3.0: Buffer—20 mM NaAc. [IFN]=0.50 mg/mL;
pH 4.1: Buffer—20 mM NaAc. [IFN]=0.53 mg/mL;
pH 5.0: Buffer—20 mM NaAc. [IFN]=0.37 mg/mL;
pH 6.0: Buffer—20 mM Na Phosphate. [IFN]=0.37 mg/mL;
pH 7.2: Buffer—20 mM Na Phosphate. [IFN]=0.48 mg/mL.
DSC scans were performed according to the procedure of Example 9. Although clear, transparent solutions of α-interferon were obtained for every pH at room temperature, there were noticeable signs of precipitation at pH 5.0 and 6.0 after the temperature scans.

[11] = DSC of α-interferon in GuHCl; type: physicochemical
Protocol: GuHCl 5M stock solution was prepared using 20 mM sodium phosphate, pH 7.2 buffer. After dilution, the pH of the stock was checked and adjusted by concentrated HCl. To determine the concentration of final solution the refractive index referenced in Methods in Enzymology, Vol. 6, page 43 by Yasuhiko Nozaki was used.
α-interferon stock (9.1 mg/mL) was mixed with sufficient amounts of GuHCl to yield the concentrations of Table 1A below:
as §1
GuHCL/α-interferon samples were prepared according to the method of Example 4. DSC scans were performed according to the procedure of Example 9.

α-interferon [12] = target: T1, α-interferon; experiment: Perturbant binding DSC with α-interferon; conditions: perturbant 0 mg/ml; α-interferon 0.64 mg/ml; pH 7.2
Protocol: as §2
DSC thermograms were generated with α-interferon at a concentration of 0.64 mg/ml and a perturbant (phenylsulfonyl-para-aminobenzoic acid purified to >98% (as determined by reverse phase chromatography prior to generation of the spectra)) at perturbant concentrations of 5, 10, 25 and 100 mg/ml. DSC was conducted on a DASM-4 differential scanning calorimeter interfaced to an IBM PC for automatic collection of the data. The scanning rate was 60° C./h.
The method of Example 19 was followed substituting α-interferon without perturbant. Results are illustrated in Table 9 below and FIG. 10. […]

Insulin: porcine insulin (MW 6,000)
Tm (Cp, max) ([1]; 0.0 M NaCl): 78.3 °C | Tm (Cp, max) ([1]; 0.25 M NaCl): 80.7 °C | Tm (Cp, max) ([1]; 0.5 M NaCl): 80.7 °C | Tm (Cp, max) ([1]; 1.0 M NaCl): 80.7 °C | Tm (Cp, max) ([2]; 0.0 M GuHCl, 50 mM phosphate pH 7.5): 78.3 °C | Tm (Cp, max) ([2]; 0.5 M GuHCl, pH 7.5): 79.3 °C | Tm (Cp, max) ([2]; 1.0 M GuHCl, pH 7.5): 77.5 °C | Tm (Cp, max) ([2]; 2.0 M GuHCl, pH 7.5): 69.7 °C | Tm (Cp, max) ([2]; 3.0 M GuHCl, pH 7.5): no transition observed

thermal condensation product of glutamic acid, aspartic acid, tyrosine, and phenyl-alanine (Glu-Asp-Tye-Phe) fractionated through a 3000 molecular weight cut-off filter
pKd [3]: 3.89 | N [4]: 11.6 | delta H [4]: 0.277 kcal/mol | delta S [4]: 38.3 cal/mol ° K | N [5]: 0.8 | delta H [5]: 0.553 kcal/mol | delta S [5]: 19.8 cal/mol ° K | pKd [6]: 8.16

O=C(O)CCCc1ccc(NC(=O)c2ccccc2)cc1 [benzoyl para-amino phenylbutyric acid]
Maximum concentration at which the solution was still transparent [7]: ≥ 8 mg/mL | log 10 Ka (1), Ka=association constant (α-interferon [8]): 3.343 | ΔH (1) (α-interferon [8]): 791.5726 cal/Mole perturbant | n (1), # of complexed perturbant molecules (α-interferon [8]; curve fitting, multiple independent sites): 23.7 | pKd (α-interferon [9]): 4.00

α-Interferon
Tm ([10]; pH 4.1): 65.64 °C | ΔH ([10]; pH 4.1): 60.47 kcal/mol | Tm ([10]; pH 5.0): 67.32 °C | ΔH ([10]; pH 5.0): 69.782 kcal/mol | Tm ([10]; pH 6.0): 65.34 °C | ΔH ([10]; pH 6.0): 45.58 kcal/mol | Tm ([10]; pH 7.2): 66.84 °C | ΔH ([10]; pH 7.2): 732.717 kcal/mol | Tm ([11]; [GuHCl] 0.0 M): 67.12 °C | ΔH ([11]; [GuHCl] 0.0 M): 72.562 kcal/mol | Tm ([11]; [GuHCl] 0.5 M): 64.43 °C | ΔH ([11]; [GuHCl] 0.5 M): 50.827 kcal/mol | Tm ([11]; [GuHCl] 1.0 M): 63.04 °C | ΔH ([11]; [GuHCl] 1.0 M): 41.705 kcal/mol | Tm ([11]; [GuHCl] 1.5 M): 60.11 °C | ΔH ([11]; [GuHCl] 1.5 M): 29.52 kcal/mol | Tm ([11]; [GuHCl] 2.0 M): 56.32 °C | ΔH ([11]; [GuHCl] 2.0 M): 24.98 kcal/mol | Tm ([11]; [GuHCl] 3.0 M): 45.90 °C | ΔH ([11]; [GuHCl] 3.0 M): 20.577 kcal/mol | Tm of α-interferon (α-interferon [12]): 67.12 °C | ΔH of α-interferon (α-interferon [12]): 72.562 kcal/mol
